For assay [1], the target named is T1, human complement C3 (human, UniProt P01024 23-1663). The assay is described as follows: cell-based or functional assay.
Assay [2] addresses T1, human complement C3. The assay is described as follows: cell-based or functional assay. This is another data set of the same source.
Assay [3] has as its target T1, human complement C3. Put plainly: SPR. A general note: In SPR one partner is held on a chip, and binding of the other changes the refractive index at the surface.
For assay [4], the target named is T2, human C3b (human, UniProt P01024 23-667; P01024 749-1663, limits assumed).
T2 construct: domain: C3b; also called C3 cleavage fragments C3b
T2 sequence (P01024 23-667 limits assumed, chain 1 of 2): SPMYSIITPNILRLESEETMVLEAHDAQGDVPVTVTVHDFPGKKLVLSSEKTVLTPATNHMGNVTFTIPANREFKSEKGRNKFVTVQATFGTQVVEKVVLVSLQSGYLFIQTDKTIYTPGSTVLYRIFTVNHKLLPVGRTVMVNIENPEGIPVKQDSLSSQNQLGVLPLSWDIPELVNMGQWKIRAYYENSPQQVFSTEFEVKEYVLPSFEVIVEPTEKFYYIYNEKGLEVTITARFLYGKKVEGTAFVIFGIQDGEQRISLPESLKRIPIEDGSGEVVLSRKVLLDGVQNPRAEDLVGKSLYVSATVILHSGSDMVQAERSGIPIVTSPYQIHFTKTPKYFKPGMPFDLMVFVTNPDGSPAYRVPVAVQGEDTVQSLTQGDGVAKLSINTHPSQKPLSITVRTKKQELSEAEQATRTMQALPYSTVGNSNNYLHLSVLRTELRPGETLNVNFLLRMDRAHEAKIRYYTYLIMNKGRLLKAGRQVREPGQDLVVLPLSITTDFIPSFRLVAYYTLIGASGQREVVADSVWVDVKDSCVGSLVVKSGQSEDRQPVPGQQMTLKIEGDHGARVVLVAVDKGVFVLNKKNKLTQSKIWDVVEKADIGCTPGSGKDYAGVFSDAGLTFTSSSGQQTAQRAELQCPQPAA
T2 sequence (P01024 749-1663 limits assumed, chain 2 of 2): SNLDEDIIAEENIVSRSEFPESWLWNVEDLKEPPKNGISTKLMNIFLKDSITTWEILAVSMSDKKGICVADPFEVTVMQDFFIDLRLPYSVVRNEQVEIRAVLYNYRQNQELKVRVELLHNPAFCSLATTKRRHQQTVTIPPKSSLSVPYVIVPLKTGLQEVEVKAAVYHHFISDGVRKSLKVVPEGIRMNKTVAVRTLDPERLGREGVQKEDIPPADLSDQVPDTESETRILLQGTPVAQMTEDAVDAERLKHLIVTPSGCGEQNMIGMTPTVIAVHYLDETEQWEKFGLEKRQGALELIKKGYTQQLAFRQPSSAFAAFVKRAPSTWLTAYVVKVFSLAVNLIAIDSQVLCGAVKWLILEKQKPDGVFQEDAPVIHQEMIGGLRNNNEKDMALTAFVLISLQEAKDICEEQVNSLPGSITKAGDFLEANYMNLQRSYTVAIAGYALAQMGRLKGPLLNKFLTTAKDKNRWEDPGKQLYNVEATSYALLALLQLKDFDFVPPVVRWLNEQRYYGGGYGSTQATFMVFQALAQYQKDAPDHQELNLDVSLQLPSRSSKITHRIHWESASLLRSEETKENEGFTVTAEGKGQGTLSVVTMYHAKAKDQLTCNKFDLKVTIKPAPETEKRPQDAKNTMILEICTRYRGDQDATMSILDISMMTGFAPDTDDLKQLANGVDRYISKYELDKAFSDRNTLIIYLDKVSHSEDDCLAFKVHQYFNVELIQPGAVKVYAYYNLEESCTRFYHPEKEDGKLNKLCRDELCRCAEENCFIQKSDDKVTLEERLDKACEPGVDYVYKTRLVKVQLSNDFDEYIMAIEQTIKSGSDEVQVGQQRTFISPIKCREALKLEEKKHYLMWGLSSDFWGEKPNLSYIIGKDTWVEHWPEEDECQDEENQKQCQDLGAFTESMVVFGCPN
Put plainly: SPR.

The target in assay [5] is T1, human complement C3. Put plainly: affinity of the purified scFv, method not given.
In assay [6] the target is T1, human complement C3. Put plainly: SPR (Biacore T100), target immobilized, single cycle kinetics, 1:1 Langmuir fit. How it is done:
(§1) The kinetic parameters of the candidates are determined using a surface plasmon resonance (SPR) and Biacore T100 device. C3 and different variants thereof (Table 19) are immobilized as a ligand on a HC30M SPR sensor chip (XanTec bionanalytics, Germany) using EDC/[…] linking chemistry. Five increasing concentrations of each molecule (analyte) are consecutively injected using the single cycle kinetics (SCK) mode to determine the kinetic parameters. Regeneration between the candidates is done with 10 mM glycine*HCl, 2 M NaCl, pH 3.5. The data is fitted to a 1:1 Langmuir binding model and the kinetic parameters of on-rate (ka), off-rate (kd), and affinity […] were determined.

In a further assay the target is T3, cynomolgus C3 (cynomolgus (Macaca fascicularis)).
T3 construct: also called cyno C3
The assay is described as above. As to the method:
as §1

The target in the next assay is T4, human C3 P314L (human, UniProt P01024 23-1663, limits assumed).
T4 construct: Expressed in CHO cells with an N-terminal 6×His tag; also called C3 SNP1 P314L; C3 SNP P314L
T4 sequence (P01024 other isoform, or with tags, fused parts or gaps P314L P314L limits assumed): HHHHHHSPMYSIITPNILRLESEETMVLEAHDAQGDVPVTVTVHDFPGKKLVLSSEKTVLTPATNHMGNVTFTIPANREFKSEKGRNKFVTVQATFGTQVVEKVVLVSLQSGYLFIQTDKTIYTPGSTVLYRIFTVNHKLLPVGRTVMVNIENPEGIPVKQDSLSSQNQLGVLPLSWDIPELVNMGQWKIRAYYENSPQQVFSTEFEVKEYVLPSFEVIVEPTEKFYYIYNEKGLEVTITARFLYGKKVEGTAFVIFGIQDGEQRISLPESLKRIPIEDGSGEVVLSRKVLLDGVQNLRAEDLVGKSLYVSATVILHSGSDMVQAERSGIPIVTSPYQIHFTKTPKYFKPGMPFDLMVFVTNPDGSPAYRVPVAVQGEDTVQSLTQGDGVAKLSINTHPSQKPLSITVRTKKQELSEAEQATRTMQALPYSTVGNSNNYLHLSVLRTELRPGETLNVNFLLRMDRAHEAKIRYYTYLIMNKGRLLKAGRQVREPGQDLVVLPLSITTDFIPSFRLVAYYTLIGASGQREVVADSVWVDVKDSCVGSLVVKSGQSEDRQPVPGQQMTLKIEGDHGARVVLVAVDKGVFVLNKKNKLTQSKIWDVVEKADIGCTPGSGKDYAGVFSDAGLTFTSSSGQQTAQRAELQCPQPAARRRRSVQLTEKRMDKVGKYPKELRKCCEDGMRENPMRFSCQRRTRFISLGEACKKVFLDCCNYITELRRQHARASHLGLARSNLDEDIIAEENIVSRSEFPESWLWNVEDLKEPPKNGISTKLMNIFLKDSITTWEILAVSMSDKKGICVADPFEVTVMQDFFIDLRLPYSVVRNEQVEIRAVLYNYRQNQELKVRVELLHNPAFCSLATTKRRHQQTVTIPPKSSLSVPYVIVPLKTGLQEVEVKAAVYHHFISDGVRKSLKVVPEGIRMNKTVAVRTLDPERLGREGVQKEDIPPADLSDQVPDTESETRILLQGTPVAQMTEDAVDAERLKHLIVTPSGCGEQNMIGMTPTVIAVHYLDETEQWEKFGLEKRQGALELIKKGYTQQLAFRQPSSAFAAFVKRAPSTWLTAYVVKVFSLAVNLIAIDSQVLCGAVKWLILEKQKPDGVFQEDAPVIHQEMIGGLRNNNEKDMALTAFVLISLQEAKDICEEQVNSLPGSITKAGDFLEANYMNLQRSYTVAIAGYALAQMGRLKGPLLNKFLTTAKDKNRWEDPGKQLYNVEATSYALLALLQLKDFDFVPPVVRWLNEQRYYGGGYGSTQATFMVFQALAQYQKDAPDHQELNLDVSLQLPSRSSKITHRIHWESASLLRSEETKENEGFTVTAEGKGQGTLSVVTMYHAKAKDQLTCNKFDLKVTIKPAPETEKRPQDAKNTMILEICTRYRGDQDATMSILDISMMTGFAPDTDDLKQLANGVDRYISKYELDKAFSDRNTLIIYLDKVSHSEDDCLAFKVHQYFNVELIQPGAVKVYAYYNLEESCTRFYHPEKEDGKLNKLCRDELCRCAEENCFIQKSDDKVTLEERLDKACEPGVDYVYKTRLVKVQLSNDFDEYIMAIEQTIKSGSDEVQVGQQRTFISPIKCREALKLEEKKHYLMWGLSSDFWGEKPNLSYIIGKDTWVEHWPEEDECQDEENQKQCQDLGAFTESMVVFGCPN
The description is as above. As to the method:
as §1

The target in a further assay is T5, human C3 R102G (human, UniProt P01024 23-1663, limits assumed).
T5 construct: Expressed in CHO cells with an N-terminal 6×His tag; also called C3 SNP2 R102G; C3 SNP R102G
T5 sequence (P01024 other isoform, or with tags, fused parts or gaps R102G R102G limits assumed): as the sequence (P01024 other isoform, or with tags, fused parts or gaps P314L P314L limits assumed) above, with R86G, L298P counted along it
The description is as above. As to the method: as §1

Assay [7] addresses T2, human C3b. The assay is described as above. How it is done: as §1
The target of assay [8] is T6, recombinant wild-type human C3 (human, UniProt P01024 23-1663, limits assumed).
T6 construct: Expressed in CHO cells with an N-terminal 6×His tag; also called recombinant C3; wildtype C3
T6 sequence (P01024 other isoform, or with tags, fused parts or gaps limits assumed): as the sequence (P01024 other isoform, or with tags, fused parts or gaps P314L P314L limits assumed) above, with L298P counted along it
Described as above. How it is done: as §1

The target of assay [9] is T1, human complement C3. The description is as above. As to the method:
as §1
This is another data set of the same source.

Assay [10] has as its target T2, human C3b. Described as above. As to the method:
as §1
The source holds these as a separate data set.

T1 sequence (P01024 23-1663 limits assumed): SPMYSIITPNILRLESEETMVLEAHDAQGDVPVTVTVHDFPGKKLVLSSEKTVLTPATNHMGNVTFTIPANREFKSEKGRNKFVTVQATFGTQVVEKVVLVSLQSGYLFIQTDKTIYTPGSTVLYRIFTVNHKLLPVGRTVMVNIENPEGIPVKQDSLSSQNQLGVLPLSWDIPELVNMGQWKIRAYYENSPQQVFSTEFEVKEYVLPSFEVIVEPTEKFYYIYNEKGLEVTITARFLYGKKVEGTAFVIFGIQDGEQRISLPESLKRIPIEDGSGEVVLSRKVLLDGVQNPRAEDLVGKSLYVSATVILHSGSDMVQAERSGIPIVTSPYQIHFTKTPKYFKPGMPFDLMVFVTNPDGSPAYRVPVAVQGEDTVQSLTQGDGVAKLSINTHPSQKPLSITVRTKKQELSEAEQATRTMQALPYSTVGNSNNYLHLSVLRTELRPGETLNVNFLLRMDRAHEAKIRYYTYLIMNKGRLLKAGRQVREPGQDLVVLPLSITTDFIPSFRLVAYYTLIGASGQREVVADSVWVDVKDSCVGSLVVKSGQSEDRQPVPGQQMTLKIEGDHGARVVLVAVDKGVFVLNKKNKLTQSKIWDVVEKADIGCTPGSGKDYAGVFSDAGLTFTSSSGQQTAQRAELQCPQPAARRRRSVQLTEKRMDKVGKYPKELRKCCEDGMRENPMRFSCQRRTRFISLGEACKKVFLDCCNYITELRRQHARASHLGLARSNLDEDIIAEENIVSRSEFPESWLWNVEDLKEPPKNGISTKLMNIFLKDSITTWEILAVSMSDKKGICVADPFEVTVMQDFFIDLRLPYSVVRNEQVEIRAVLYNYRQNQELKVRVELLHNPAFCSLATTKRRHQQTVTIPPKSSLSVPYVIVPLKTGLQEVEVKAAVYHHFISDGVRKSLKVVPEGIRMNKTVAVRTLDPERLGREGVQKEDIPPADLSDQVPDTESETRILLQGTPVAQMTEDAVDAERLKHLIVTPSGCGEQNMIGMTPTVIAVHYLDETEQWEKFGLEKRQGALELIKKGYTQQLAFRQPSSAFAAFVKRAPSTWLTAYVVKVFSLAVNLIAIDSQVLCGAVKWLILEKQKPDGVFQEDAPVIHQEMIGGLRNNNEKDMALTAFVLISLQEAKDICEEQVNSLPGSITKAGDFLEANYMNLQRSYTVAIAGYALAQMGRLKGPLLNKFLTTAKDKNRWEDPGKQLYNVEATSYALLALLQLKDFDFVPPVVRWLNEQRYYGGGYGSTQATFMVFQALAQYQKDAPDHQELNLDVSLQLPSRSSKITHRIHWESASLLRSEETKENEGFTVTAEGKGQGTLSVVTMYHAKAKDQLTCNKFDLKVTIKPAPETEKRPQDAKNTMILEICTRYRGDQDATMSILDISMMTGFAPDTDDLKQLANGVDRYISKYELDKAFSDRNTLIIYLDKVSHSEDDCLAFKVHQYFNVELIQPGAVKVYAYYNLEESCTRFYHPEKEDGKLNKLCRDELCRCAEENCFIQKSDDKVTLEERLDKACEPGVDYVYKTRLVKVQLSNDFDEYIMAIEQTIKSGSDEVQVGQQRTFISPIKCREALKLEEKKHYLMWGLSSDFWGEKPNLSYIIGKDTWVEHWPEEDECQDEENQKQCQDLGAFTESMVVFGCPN

B1: Comparative Compound A3 (antibody, human IgG1, kappa, V domains shown)
VH: QVQLVQSGAEVKKPGASVKVSCKASGYTFTDFYMDWVRQAPGQRLEWMGYIYPHNGGTTYNQQFTGRVTITVDKSASTAYMELSSLRSEDTAVYYCARRGGFDFDYWGQGTLVTVSS
VL: DIQMTQSPSSLSASVGDRVTITCKASENVDTYVSWYQQKPGKAPKLLIYGASNRYTGVPSRFSGSGSGTDFTFTISSLQPEDIATYHCGQSHSYPLTFGQGTKLEIKR
B1: in the assay with human complement C3 [1], the “IC50 (nM), Alternative Pathway, Hemolysis (rabbit erythrocytes, human serum)” value (“IC50 (nM) … (rabbit erythrocytes, human serum)” for short) was 207 nM; the “IC50 (nM), Alternative Pathway, MAC deposition (WEISLAB, human serum)” value was determined as 548 nM; the “IC50 (nM), Classical Pathway, Hemolysis (antibody-sensitized sheep erythrocytes, human serum)” value (shortened to “IC50 (nM), Classical Pathway, Hemolysis”) worked out at 56 nM; the “IC50 (nM), Classical Pathway, MAC deposition (WEISLAB, human serum)” value was determined as 56 nM. The “IC50 (nM), Lectin Pathway, MAC deposition (WEISLAB, human serum)” value (“IC50 (nM), Lectin Pathway” for short) with human complement C3 [1] worked out at 58 nM.

B2: Clone IV (scFv)
scFv: QSVKESGGRLVTPGTPLTLTCTVSGFSLYNYAMNWVRQAPGKGLEWIGIINTDGNTNYASWAKGRFTISTTSSTTVDLKITSPTTEDTATYFCPRAVGYHHHALDPWGPGTLVTVSSGGGGSGGGGSGGGGSGGGGASELVLTQSPSVSAALGASAKLTCTLSSAHKTYTIDWYQQQQGEAPRYLMQLKSDGSYTKGTGVPDRFSGSSSGADRYLIIPSVQADDEADYYCGTDYGGGYVFGGGTQLTVTG
Consider B2, for which, in the assay with human complement C3 [2], the “IC50, complement inhibition in the alternative pathway” value worked out at 280 nM and the “IC50, complement inhibition in the classical pathway” value was found to be 80 nM.

B3: Clone XIII (scFv)
scFv: MQLVLTQSPSASASLGASVKLTCTLSSAHKTYTIDWYQQQPEKCPRYLMQLKSEGSYTKGTGVPDRFSGSSSGAERYLTISSLQSEDEADYYCGTEGVGGYVFGGGTKLTVLGGGGGSGGGGSGGGGSGGGGSQVQVVESGGGSVQPGRSLRLSCAVSGFSLYNYAMNWVRQAPGKGLEWIGIINVGGGTNYASWAKGRFTISTDNSKNTVYLQMNSLRAEDTASYYCARAVGYHHARLDPWGCGTSVTVSS
As for B3, in the assay with human complement C3 [3], binding was put at a Kd of 0.116 nM. In the assay with human C3b [4], the Kd – broadly, the constant that tells how readily two partners part at equilibrium – was found to be 0.11 nM. Further, in the assay with human complement C3 [2], the “IC50, complement inhibition in the alternative pathway” value worked out at 260 nM and the “IC50, complement inhibition in the classical pathway” value was 60 nM.

B4: Clone IX (scFv)
scFv: MQLVLTQSPSASASLGASVKLTCTLSSAHKTYTIDWYQQQPEKGPRYLMQLKSEGSYTKGTGVPDRFSGSSSGAERYLTISSLQSEDSAVYYCGTDGVGGYVFGCGTKLTVLGGGGGSGGGGSGGGGSGGGGSQVQVVESGGGSVQPGRSLRLSCAVSGFSLYNYAMNWVRQAPGKCLEWIGIINVGGGTNYASWAKGRFTISTDNSKNTVYLQMNSLRAEDTASYYCARAVGYHHHALDPWGQGTSVTVSS
The molecule B4 displayed a Kd in the assay with human complement C3 [5] of 1.3 nM.

B5: Clone XII (scFv)
scFv: MQLVLTQSPSASASLGASVKLTCTLSSAHKTYTIDWYQQQPEKCPRYLMQLKSEGSYTKGTGVPDRFSGSSSGAERYLTISSLQSEDEADYYCGTDYGGGYVFGGGTKLTVLGGGGGSGGGGSGGGGSGGGGSQVQVVESGGGSVQPGRSLRLSCAVSGFSLYNYAMNWVRQAPGKGLEWIGIINVGGGTNYASWAKGRFTISTDNSKNTVYLQMNSLRAEDTASYYCARAVGYHHARLDPWGCGTSVTVSS
Turning to B5, the affinity in the assay with human complement C3 [3], expressed as Kd, was 4.7 nM. The same molecule had a Kd with human C3b [4] of 4.8 nM. Besides, in the assay with human complement C3 [2], the “IC50, complement inhibition in the alternative pathway” value is 210 nM and the “IC50, complement inhibition in the classical pathway” value is 98 nM.

B6: Clone XIV (scFv)
scFv: MQLVLTQSPSASASLGASVKLTCTLSSAHKTYTIDWYQQQPEKCPRYLMQLKSEGSYTKGTGVPDRFSGSSSGAERYLTISSLQSEDEADYYCGTEGVGGYVFGGGTKLTVLGGGGGSGGGGSGGGGSGGGGSQVQVVESGGGSVQPGRSLRLSCAVSGFSLYNYAMNWVRQAPGKGLEWIGIINVGGGTNYASWAKGRFTISTDNSKNTVYLQMNSLRAEDTASYYCARAVGYHHSRLDPWGCGTSVTVSS
notes: also called Cone XIV
For B6, binding with human complement C3 [3] was characterised by a dissociation constant (Kd) of 0.129 nM. In the assay with human C3b [4], binding was put at a Kd of 0.116 nM. Further, in the assay with human complement C3 [2], the “IC50, complement inhibition in the alternative pathway” value worked out at 250 nM and the “IC50, complement inhibition in the classical pathway” value worked out at 50 nM.

B7: Clone II (scFv)
scFv: MQLVLTQSPSASASLGASVKLTCTLSSAHKTYTIDWYQQQPEKCPRYLMQLKSDGSYTKGSGIPDRFSGSSSGAERYLTISSLQSEDEADYYCGTEGVGGYVFGGGTKLTVLGGGGGSGGGGSGGGGSGGGGSQVQLVESGGGSVQPGRSLRLSCAASGFTFSNYAMNWVRQAPGKGLEWVAIINVGGGTNYADSVKGRFTISRDNSKNTLYLQMNSLRAEDTASYYCARAVGYHHARLDPWGCGTSVTVSS
notes: also called scFv of the invention
Consider B7, for which the “IC50 (nM) … (rabbit erythrocytes, human serum)” value in the assay with human complement C3 [1] is 668 nM. In addition, in the assay with human complement C3 [1], the “IC50 (nM), Alternative Pathway, MAC deposition (WEISLAB, human serum)” value was found to be 360 nM. Moreover, in the assay with human complement C3 [1], the “IC50 (nM), Classical Pathway, Hemolysis” value amounted to 69 nM. Also, the “IC50 (nM), Classical Pathway, MAC deposition (WEISLAB, human serum)” value with human complement C3 [1] was 77 nM. In addition, in the assay with human complement C3 [1], the “IC50 (nM), Lectin Pathway” value amounted to 71 nM. The Kd is 0.022 nM in the assay with human complement C3 [6]; 0.07 nM in the assay with cynomolgus C3; below 0.04 nM with human C3 P314L; 0.021 nM in the assay with human C3 R102G; 0.05 nM in the assay with human C3b [7]; 0.035 nM in assay [8]. Further, the Kd with human complement C3 [9] worked out at 0.022 nM; with human C3b [10], 0.05 nM. Moreover, the koff (in general, the first-order rate constant of dissociation) in the assay with human complement C3 [6] is 5.5e-06 s⁻¹; in the assay with cynomolgus C3, 1.5e-05 s⁻¹; in the assay with human C3 P314L, below 1.1e-05 s⁻¹; with human C3 R102G it was 7e-06 s⁻¹; with human C3b [7], 1.2e-05 s⁻¹; in assay [8], 1e-05 s⁻¹. Further, the kon (as a rule, a measure of how fast the partners come together) was determined as 250000 M⁻¹ s⁻¹ with human complement C3 [6]; 210000 M⁻¹ s⁻¹ with cynomolgus C3; 290000 M⁻¹ s⁻¹ with human C3 P314L; 330000 M⁻¹ s⁻¹ with human C3 R102G; 250000 M⁻¹ s⁻¹ in the assay with human C3b [7]; 300000 M⁻¹ s⁻¹ in [8].

B8: Clone III (scFv)
scFv: MQLVLTQSPSASASLGASVKLTCTLSSAHKTYTIDWYQQQPEKCPRYLMQLKSEGSYTKGSGIPDRFSGSSSGAERYLTISSLQSEDEADYYCGTEGVGGYVFGGGTKLTVLGGGGGSGGGGSGGGGSGGGGSQVQLVESGGGSVQPGRSLRLSCAASGFTFSNYAMNWVRQAPGKGLEWVAIINVGGGTNYADSVKGRFTISRDNSKNTLYLQMNSLRAEDTASYYCARAVGYHHARLDPWGCGTSVTVSS
notes: as for B7
Take B8: the “IC50 (nM) … (rabbit erythrocytes, human serum)” value in the assay with human complement C3 [1] was found to be 745 nM. Also, in the assay with human complement C3 [1], the “IC50 (nM), Alternative Pathway, MAC deposition (WEISLAB, human serum)” value came out at 349 nM. For the same molecule, in the assay with human complement C3 [1], the “IC50 (nM), Classical Pathway, Hemolysis” value worked out at 72 nM. Further, the “IC50 (nM), Classical Pathway, MAC deposition (WEISLAB, human serum)” value with human complement C3 [1] was 73 nM. For the same molecule, the “IC50 (nM), Lectin Pathway” value in the assay with human complement C3 [1] turned out to be 64 nM. Moreover, the Kd with human complement C3 [6] is 0.151 nM; with cynomolgus C3 it was 0.208 nM; in the assay with human C3 P314L, 0.127 nM; with human C3 R102G, 0.115 nM; with human C3b [7], 0.127 nM; in assay [8], 0.128 nM. Besides, the Kd with human complement C3 [9] was 0.151 nM; with human C3b [10], 0.127 nM. Further, the koff turned out to be 3.6e-05 s⁻¹ in the assay with human complement C3 [6]; 4.3e-05 s⁻¹ with cynomolgus C3; 3.2e-05 s⁻¹ with human C3 P314L; 3.2e-05 s⁻¹ with human C3 R102G; 3.1e-05 s⁻¹ with human C3b [7]; 3.5e-05 s⁻¹ in [8]. For the same molecule, the kon in the assay with human complement C3 [6] came to 240000 M⁻¹ s⁻¹; with cynomolgus C3, 200000 M⁻¹ s⁻¹; with human C3 P314L it was 250000 M⁻¹ s⁻¹; in the assay with human C3 R102G, 280000 M⁻¹ s⁻¹; in the assay with human C3b [7], 250000 M⁻¹ s⁻¹; in assay [8], 270000 M⁻¹ s⁻¹.

For the origin of these results see patent publication US12344663 (CDR LIFE, dated 2025).
